Laboratory results taken from patent US20240124563A1 (NANJING ZAIMING PHARMACEUTICAL, published 2024).

Assays:
[1] = molecular target: T1, human MSLN-FL-his protein (human, UniProt Q13421 296-580); assay: competitive ELISA on MSLN-FL-His; other antibody: NB149-34 (3.m8)
T1 construct: Made in HEK293E cells, purified on nickel column; also called hMSLN-FL-his; not shown: histidine tag

[2] = molecular target: T2, human MSLN-R2-his protein (human, UniProt Q13421 391-486); assay: ELISA, antibody 100 nM
T2 construct: MSLN-R2 = Ser391-Asn486; also called hMSLN-R2-his; not shown: histidine tag
T2 sequence (Q13421 other isoform, or with tags, fused parts or gaps): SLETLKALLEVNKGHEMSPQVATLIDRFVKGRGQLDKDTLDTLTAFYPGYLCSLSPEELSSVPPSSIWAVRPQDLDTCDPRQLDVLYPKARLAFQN

[3] = molecular target: T3, human MSLN-R1-his protein (human, UniProt Q13421 296-390); assay: ELISA, antibody 0.0001 nM
T3 construct: MSLN-R1 = Glu296-Thr390; also called hMSLN-R1-his; not shown: histidine tag
T3 chain: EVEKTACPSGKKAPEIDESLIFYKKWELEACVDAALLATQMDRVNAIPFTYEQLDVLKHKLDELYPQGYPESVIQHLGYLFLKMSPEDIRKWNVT

[4] = molecular target: T1, human MSLN-FL-his protein; assay: competitive ELISA on MSLN-FL-His; other antibody: NB149-31 (3.m7)
[5] = molecular target: T2, human MSLN-R2-his protein; assay: ELISA, antibody 10 nM
[6] = molecular target: T3, human MSLN-R1-his protein; assay: ELISA, antibody 100 nM
[7] = molecular target: T3, human MSLN-R1-his protein; assay: ELISA, antibody 0 nM (blank)
[8] = molecular target: T2, human MSLN-R2-his protein; assay: ELISA, antibody 0.001 nM
[9] = molecular target: T1, human MSLN-FL-his protein; assay: competitive ELISA on MSLN-FL-His; other antibody: NB148-25 (3.m2)
[10] = molecular target: T1, human MSLN-FL-his protein; assay: competitive ELISA on MSLN-FL-His; other antibody: Tab108 (R3) (3.m14)
[11] = molecular target: T4, human MSLN-R3-his protein (human, UniProt Q13421 487-598); assay: ELISA, antibody 100 nM
T4 construct: MSLN-R3 = Met487-Ser598; also called hMSLN-R3-his; not shown: histidine tag
T4 sequence (Q13421 495-606): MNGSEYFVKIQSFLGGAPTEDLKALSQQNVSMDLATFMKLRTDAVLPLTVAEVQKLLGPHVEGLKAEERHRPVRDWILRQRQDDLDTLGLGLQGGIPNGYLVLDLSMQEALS

[12] = molecular target: T1, human MSLN-FL-his protein; assay: competitive ELISA on MSLN-FL-His; other antibody: NB149-70 (3.m9)
[13] = molecular target: T4, human MSLN-R3-his protein; assay: ELISA, antibody 0.01 nM
[14] = molecular target: T3, human MSLN-R1-his protein; assay: ELISA, antibody 0.001 nM

inhibition rate [1]: -8%
OD450 nm [2]: 0.09
OD450 nm [3]: 0.04
inhibition rate [4]: -10%
OD450 nm [5]: 0.05
OD450 nm [6]: 0.08
OD450 nm [7]: 0.05
OD450 nm [8]: 0.05
inhibition rate [9]: 23%
inhibition rate [10]: 21%
OD450 nm [11]: 0.09
inhibition rate [12]: -10%
OD450 nm [13]: 0.04
OD450 nm [14]: 0.05
B1: Tab107 (YP3, hIgG1) (antibody, V domains shown)
VH: QEQLVESGGGLVQPGASLTLTCTASGIDFSRYYMCWVRQAPGKGLEGIACIYIGGSGSTYYASWAKGRFTISKASSTTVTLQMTSLTAADTATYFCARGTNLNYIFRLWGPGTLVTVSS
VL: DVVMTQTPSPVSAAVGGTVTIKCQASQSINNGLAWYQQKPGQPPRLLIYSASNLESGVPSRFKGSGSGTEFTLTISDLECDDAATYYCQCIWDGNSYVNAFGGGTEVVVRT
notes: also called YP3 human IgG1 antibody
